This note sets out measurements from patent US20200222478A1.

Holding throughout (experiment): UV peptide exchange + HLA class I ELISA
What all share (details): remark: other sources report otherwise

For assay [1], the target named is HLA-A*01:01 (human).
In assay [2] the target is HLA-A*02:01 (human).
Assay [3] has as its target HLA-A*03:01 (human).
In assay [4] the target is HLA-A*24:02 (human).
Assay [5] concerns the target HLA-B*07:02 (human).
Assay [6] concerns the target HLA-B*08:01 (human).

B1: P60 9-mer peptide (FOXA1.p.F266L) (peptide)
peptide: YLRRQKRLK
modifications: here or on the partner: biotinylated heavy chain
Take B1: the exchange rate vs Pos peptide in assay [1] is 3.1%; in assay [2], 7.9%; in assay [3], 36.6%; in assay [4], 0.9%; in assay [5], 6.1%; in assay [6], 10.2%.

B2: P58 9-mer peptide (AR (Q903H)) (peptide)
peptide: HVPKILSGK
modifications: here or on the partner: biotinylated heavy chain
Turning to B2, the exchange rate vs Pos peptide stood at 2.5% in assay [1]; 11.8% in assay [2]; 32.5% in assay [3]; 0.2% in assay [4]; 5.3% in assay [6].

B3: P56 9-mer peptide (SPOP(F102C)) (peptide)
peptide: RAKCKFSIL
modifications: here or on the partner: biotinylated heavy chain
Turning to B3, the exchange rate vs Pos peptide in assay [1] was found to be 2.6%; in assay [2], 8.4%; in assay [3] it was 6.8%; in assay [4] it was 0.5%; in assay [5], 82.5%; in assay [6], 38%.

B4: P76 9-mer peptide (AR-V3 splice variant) (peptide)
peptide: YCMAAPMGL
modifications: here or on the partner: biotinylated heavy chain
In the case of B4, the exchange rate vs Pos peptide in assay [1] is 0.1%; in assay [2] it was 85.9%; in assay [3], 6%; in assay [4] it was -0.5%; in assay [5] it was 91.5%.

B5: P82 9-mer peptide (AR-V7 splice variant) (peptide)
peptide: RVGNCKHLK
modifications: here or on the partner: biotinylated heavy chain
Turning to B5, the exchange rate vs Pos peptide in assay [1] is 1.5%; in assay [2], 6.3%; in assay [3], 58.1%; in assay [4] it was -0.1%; in assay [5] it was 12.9%; in assay [6], 1.4%.

B6: P73 9-mer peptide (TP53 (G266E)) (peptide)
peptide: LLERNSFEV
modifications: here or on the partner: biotinylated heavy chain
For the molecule B6, the exchange rate vs Pos peptide stood at 89.2% in assay [2]; 3.5% in assay [3]; 0.5% in assay [4]; 8.7% in assay [5]; 2.6% in assay [6].

B7: P98 9-mer peptide (TP53 (R213D) frameshift) (peptide)
peptide: IVWWCPMSR
modifications: here or on the partner: biotinylated heavy chain
On to B7, for which the exchange rate vs Pos peptide in assay [1] was 2.5%; in assay [2], 7.9%; in assay [3], 51.1%; in assay [4], -0.1%; in assay [5] it was 6.7%; in assay [6], 2.4%.

B8: P48 9-mer peptide (AR.p.H875Y) (peptide)
peptide: YQFTFDLLI
modifications: here or on the partner: biotinylated heavy chain
For the molecule B8, the exchange rate vs Pos peptide worked out at 4.3% in assay [1]; 99.3% in assay [2]; 4.4% in assay [3]; 0.1% in assay [4]; 12.8% in assay [5].

B9: P87 9-mer peptide (AR-Intron splice variant) (peptide)
peptide: FLFLLLPLS
modifications: here or on the partner: biotinylated heavy chain
As to B9, the exchange rate vs Pos peptide in assay [1] worked out at 1.1%; in assay [2], 64%; in assay [3], 2.4%; in assay [4], 0.2%; in assay [5] it was 5%; in assay [6] it was 3.1%.

B10: P61 9-mer peptide (FOXA1.p.R261G) (peptide)
peptide: CYLGRQKRF
modifications: here or on the partner: biotinylated heavy chain
Consider B10, for which the exchange rate vs Pos peptide in assay [1] is 1.7%; in assay [2], 5.8%; in assay [4] it was 90.3%; in assay [6], 3.6%.

B11: P46 9-mer peptide (TP53 (R213D) frameshift) (peptide)
peptide: CPMSRLRLA
modifications: here or on the partner: biotinylated heavy chain
Regarding B11, the exchange rate vs Pos peptide in assay [1] was 2.4%; in assay [2], 14.4%; in assay [3], 10.3%; in assay [4], -0.4%; in assay [5], 64.8%; in assay [6], 14.5%.

B12: P22 9-mer peptide (SLC45A3-ELK4 fusion) (peptide)
peptide: QLIAMDSAI
modifications: here or on the partner: biotinylated heavy chain
As for B12, the exchange rate vs Pos peptide in assay [1] stood at 4.4%; in assay [2], 46.9%; in assay [3], 4.8%; in assay [4] it was 0%; in assay [5] it was 8.3%; in assay [6] it was 3.9%.

B13: P97 9-mer peptide (FOXRED2-TXN2 fusion) (peptide)
peptide: LMAQRLLLR
modifications: here or on the partner: biotinylated heavy chain
Turning to B13, the exchange rate vs Pos peptide was found to be 2.5% in assay [1]; 4.6% in assay [2]; 39% in assay [3]; 0.1% in assay [4]; 7% in assay [5]; 2.7% in assay [6].

B14: P19 9-mer peptide (TMEM222-LOC644961 fusion) (peptide)
peptide: IPVLTRWPL
modifications: here or on the partner: biotinylated heavy chain
Regarding B14, the exchange rate vs Pos peptide came to 5.2% in assay [1]; 8.2% in assay [2]; 4.1% in assay [3]; 0.1% in assay [4]; 91.3% in assay [5]; 14.5% in assay [6].

B15: P17 9-mer peptide (MSMB-NOCA4 fusion) (peptide)
peptide: RAVRRMNTF
modifications: here or on the partner: biotinylated heavy chain
Turning to B15, the exchange rate vs Pos peptide in assay [1] came out at 4.9%; in assay [3] it was 3.8%; in assay [4], 0.1%; in assay [5], 38.7%.
